Data from the DeepSol protein solubility set.

Assay: soluble on expression in E. coli; label from the status in PepcDB or PDB records

Sequence | soluble on expression in E. coli
MIYPDETMLYAPVEWHDCSEGYTDIRYEKSTDGIAKITINRPQVRNAFRPLTVKEMIQALADARYDDNVGVIILTGEGDKAFCAGGDQKVRGDYGGYQDDSGVHHLNVLDFQRQIRTCPKPVVAMVAGYSIGGGHVLHMMCDLTIAAENAIFGQTGPKVGSFDGGWGASYMARIVGQKKAREIWFLCRQYDAQQALDMGLVNTVVPLADLEKETVRWCREMLQNSPMALRCLKAALNADCDGQAGLQELAGNATMLFYMTEEGQEGRNAFNQKRQPDFSKFKRNP | not soluble
MRIGELSKETGVSERSLRHYEEKGLLPSKRLANGYRDFDESAIEKVELIQMYLQIGLNLEETARMLRCLEIEPHLYDNPCSSILTLYEDKLNEVTKQITLLSNIQANLQKHVSLLKQAKEKE | not soluble
MSDGIPFAGEPADSHEAIMRATFRALREYGYAGLSIQRIADEADLSKSTFYHHFDGKEDLLLSFQEFILTEFNRIFQIESTGDPEQDIKTFVSLILDDFPDCVETPTKNAVLGSYVEMRAQAVQNPDFREKFTETDELFARQLVQIIEDGIEQGVFADVDPDTVSRFMITILDGVILQSATRNDNPVAEVRDTIDEYIEETLILNT | not soluble
MGSDKIHHHHHHMALRSMDELRQQAQGALSLNIAFIGVVNGLFSTLHALGNADSAALAAATGMDTGYVLRWCDAAYAFGWLELTDNEQWRLSEDGDRMRPEAENSRVGVAVGAVLSAHMAERAAGLMRTGERPGEKVLAERETILPWFGLMLENNFRKTFEEKICPTVPIFAEVDARGGLAVDLGCGNGWYLRALAARCGHLHGLGLDGFAENIRQATEKAQSEGIADRLHFDEGDIHQFSLPEPADLIAMNRSLHHVWENRGEIFQRLHASLKPEGAIVIWEPAWPDDHRVLREPPLRGMAFQNLTEHVQGNHFLHPEEIATALSEAGLHPEIFPFGSDVVVVGRV | not soluble
MTTDQIAAFCLQLPGAREDLKWGSNRVFSVAGNKMFAILDFVDKDGGLAFKVGSELFLGYVDRPGIRPAPYLARAHWIVMARPYPMKAAELREALVRSHQLVVARLPKRQRLGLVLDA | not soluble
MSRVITHGQVKRVSETNAYAVPVESLTFPTLQPIGPLPPAGTTGVLITQRVPNTPYTPAPPPPPPVPANQTIIYEDGNNNNTIYMRVVSVVGPAKYNIEVL | not soluble
MDAEPSTPKQTEQEPSALSSADQVTNEPMESIIRPSILDSNSKMGNKQEDEDRLKKDSGPSTSNQAEQDPSKSADQFVTLSRPTTLGFSPTFESLQNNQEDTKQSTRLLNEDQDRDTLLKKHVDSLYALSERCIIFAGVLNQFLPTEKRRSKTDFLTENMLAALLSELITQIEVSDLRAKANPAVGKQEGDRCKELVSEKSCIEESLRNFREFAKEDSKTDTSSKLDPPNLNTLLYQLEGIEKIMNSIQTTLEANNFNDSENGSNEVTPNKSQLEGDSLKEVPSEESQIVDSAHDGDSRKEGESEVSEMDNVALDKDLPEETETDKTLVDEIPLEDLDKEPLDENPLEGSPGPAQNMTERNIRKRPNSRHDNVSPSKLQKV | soluble
MAKKKSVFTCQECGYQSPKYLGRCPNCSAWSSFVEEVEVQEVKNARVSLNGEKSRPTKLKDVSSINYSRTKTDMDEFNRVLGGGVVPGSLVLIGGDPGIGKSTLLLQVSTQLANKGTVLYVSGEESAEQIKLRSERLGDIDNEFYLYAETNMQSIRSEIEKIKPDFLIIDSIQTIMSPEVSSVQGSVSQVREVTAELMQLAKTNNIATFIVGHVTKEGTLAGPRMLEHMVDTVLYFEGERHHTFRILRAVKNRFGSTNEIGIFEMQSGGLVEVLNPSQVFLEERLDGATGSAIVVTMEGTRPILAEVQALVTPTVFGNAKRTTTGLDFNRVSLIMAVLEKRCGLLLQNQDAYLKSAGGVKLDEPAIDLAVAVAIASSYKEKPTNPQESFIGEIGLTGEIRRVTRIEQRINEASKLGFTKIYAPKNSLAGIEIPKGIDVIGVTTVSQVLKAVFST | not soluble
MSLSRCLPLGQNARVIIIPARLAHAASTQAAAATDDAPNFFQKLAHRFQGVPLKGEAHAPKSMFEDCNKEWSAPEPLPAIPKDFKEHPDRDLVNYPYPARPMYPPKSRLLMMPDSWFTPFQKVTGVSGPYLFFGGLFAFLVNKELWVFEEQGHMTVGWILFYLLVTRTAGYKIDQGLYNGYQERVNFFKGLIQEDLKEAVEFKKTSAKQTESLNSIKESYPTALKESMALQLEATYRKNVQSVATELKRRIDYLKETEESKARVEREQLLKLINSEVDKEFSDRSFKDKYLQNAIQQLKGLNVQL | not soluble
MAILYSKMKRSVTIKLQPSKEQEKILFELADVGAKVWNRVNYLRRQEFFEGKLVDFNRTEKIVYEEFKQETGSATVQQIARKNAEAWRSFFTNCPSGSSQNHQTTLEHHHHHH | not soluble
MGTSSFTFPGFYRAKNMRSPECLDLLDSMNHFILHCHWEHADLNRTSLTERKRLGSKYEYENWFEEKRENSGTKFIKRSSSSKEIHYNCALVTNGDNRQFKKSKKLDQYCASGKVQFHDSGSVDVLGCCSHAGHDT | not soluble
GPGSMELNQLELFVASTEHTRSDAWRYLRRLRVLDCKIEEGFDRLHEIAVQLSGTDSDGNLVDNQGNGTLQPDRKKRGRPPLCKNAFTATPYNVGQSPDSSVLLVDPAVANLHEEFRKHSRSVKRYALEREQIAEELVASGKELTEYLEARMREFRATFSISD | soluble
MAYTLATHTAGVIPAGKLERVDPTTVRQEGPWADPAQAVVQTGPNQYTVYVLAFAFGYQPNPIEVPQGAEIVFKITSPDVIHGFHVEGTNINVEVLPGEVSTVRYTFKRPGEYRIICNQYCGLGHQNMFGTIVVKE | soluble
NDGTTVTPLCTSPVVQCGEGTLFGGDEPARTWFTAAQSSGLAASGNLPSYDPKFNRGVSGSFGTSYVGREGESVRKELSAKGYKVTMTSAPGDGIPKGSVVNVIAPVPLKPGGTIELFISDGTRPRTTPPSTTRRPNPTEEVVPGTGVSQNDLDDLAHQLQQLLPGF | not soluble
AEALAAGQRRIAKGERDFKDRVGFLRGRARPASTLITRFIADHQGHREGPDGLRWGVESICTQLTELGVPIAPSTYYDHINREPSRRELRDGELKEHISRVHAANYGVYGARKVWLTLNREGIEVARCTVERLMTKLGLSGTTRGKARRTTIADPATARPADLVQRRFGPPAPNRLWVADLTYVSTWAGFAYVAFVTDAYARRILGWRVASTMATSMVLDAIEQAIWTRQQEGVLDLKDVIHHTDRGSQYTSIRFSERLAEAGIQPSVGAVGSSYDNALAETINGLYKTELIKPGKPWRSIEDVELATARWVDWFNHRRLYQYCGDVPPVELEAAYYAQRQRPAAG | soluble
MGSDKIHHHHHHMNVFPADRIEAMHDAGLDILERLGIKVLLPEARAIFATAGAMVKDDMVYIGRDIVEASLASAPRRIEGRAGAPERDVVLELGSLVFQPGAGAPHATDEVRGRRPGCARDFKELIQLTNHFDVFHMLPPLVEPQDIATNIRHYFTLECQLTESNKFPFIFSRGTPQVTESFEMLRDFRGLSDAEFEAEPRCYTIINTNSPRTLDVPMAQGLIDFARMGQISIVTPFTLMGAMAPITVAGAITLSHAEALAAITLTQLTNPGAPVCYGTFTSNVDMKSGAPAFGTPSHFQASLAAGQLARHIGLPWRSAAGSAANLNDVQAANENQFGLWGCLMAGATVVIHSAGWLEGGLSISYEKLITDAEVLNMVAELCAGAQASDAEIGLDAIEDTAPSGHFFATAQTMARYQTEFYEPIIHDYANFGTWTERGSKDASTRARDVWQGILADPKSPTVNGDRLSALQDDIARRTQAGGAYPES | not soluble
TTHKFEHPLNEKTRIYLRVESLLRQAHLASGFADNHQYQLFFRALFDMVEIFEQIQLKSELAKDLEKQRLSYRHWLNVEGVDQEALNSLLNEIDVVHSQLMGAERFGQALKEDRFLSSIRQRFNLPGGSCCFDLPALHYWLHLPIERKKHDANQWQKSLKPLSDALTLWLKLARETGHFKAQIARAGFFQSDADEANILRLHIPMKYGVYPMISGHKNRFAIKFMAFENGQACSQDVEFELAVC | soluble
MGSDKIHHHHHHENLYFQGMQLLKELCSIHAPSGNEEPLKDFILEYIRSNAGSWSYQPVIYADNDLQDCIVLVFGNPRTAVFAHMDSIGFTVSYNNHLHPIGSPSAKEGYRLVGKDSNGDIEGVLKIVDEEWMLETDRLIDRGTEVTFKPDFREEGDFILTPYLDDRLGVWTALELAKTLEHGIIAFTCWEEHGGGSVAYLARWIYETFHVKQSLICDITWVTEGVEAGKGVAISMRDRMIPRKKYVNRIIELARQTDIPFQLEVEGAGASDGRELQLSPYPWDWCFIGAPEKDAHTPNECVHKKDIESMVGLYKYLMEKL | soluble
MLTGCSRRELLDDYPVSGVDIKLDWNGVTDKLPEGVRVIFYPKSAEGRKIDTYLSVRGGKVKVPPGRYSVVAYNYDTETVQIRGEEAYETIEAFTGYCNGLGIAGTEKMVWGPDPLYVVQIDDLHIANSEEELLLDWKPKLVVKTYFFKIKVEGLEYVSSIVGSVEGMAGCYCLGRCCGMMCDAPIYFEAQGRSGEVTGSFTAFGMPEAAISRAGDKIKLTLAFIKVDKTVQKAEIDITEVVTNSESGGSGGGNVDEPPTEIELPLDEKVKVEKPTTNPDGGGGGIGGDVGDWGDEDEVVLPVE | not soluble
MGSDKIHHHHHHMTRKNKEQPAMSNNTSSNTNGKPQKRLIIITGDKGGVGKSTFARAIFQLYINKNLPCVAYEADLRNPQIERYFQKDYRPIIRYIDIFHRGGADDLLINLDESDCPITLLDLPAQSGCFFESYVKELAFFEVLKTEINCRVTMVSVISRVLDSINVLEKLRELCKDQVDYIVVKNLFHGEEEKFERYNDSSLRQNMLAEGLIELVMPDLFYKSYDFLDRHALTFNEGQTHQETNIVIKSRIKSWVAEFEAQIKPAFNFLGFDIQPDDCYYPAVVEKSKELRENEEKEKAKNQDANLPSEDIAA | not soluble
MGSDKIHHHHHHMTINFNRIYVIQSLSKANGDELTGQQLFDDVLQYFNTKYGDKDARIFNVDNKKELLHALENIKSHCETDGIKPIIHFEIHGLEDKTGLSLNQEDVNWGDIYVKFIEINAASKWNLFITMGVCFGNYSMLLIRPSLPAPFTGILGSFEELFEWDLYIRYNAFYQELLNSLDFEKALEALHDSNPALPDDYRYINSEQTFKNVYQKYFDTQFSDVKIKERFNLTIAEEKISFTNRNIKRQFYSKFRTNLLNTKKEFFIKDKRKFFMFDVFPGHQYIYCVNWEPNYH | not soluble
MLFLPILILNLLIITHAIDIIPREVLFQDPKYSSVSLSPDAKQVGYVAPDENGIRNVFTRCSSCSYSRQVTFETEHPILNYVWTAIPDVILFTQDNHGDENTRIYKKNISATAIAADKTQRVVISEKPMVKAMILSNNLISETVLIGMNDENPALHNIYAFNCQTDELKLVLQNRRFSIFFFDNDLNVRLASEEGPDGEMIYYRPRSNEGARTTEQNTWVEYLRIQHDDKAITMPITFDKSNNFMYWIMGDGSDLGNLVVFPFEDPQQKEILYTAQRAQIGNVLIHPTDKTLLAVTEVYHKPELFVANETFMEDLQYLVNMKPSGSMNIVSMSIDMSTWLVTYSSSDEPYDIYLYRRWNKKAELFMSTRPELKKYTLNKQIGFDFRARDEMTIQAYLSLPPQAPLLKSSQVPDGDRPYANLGMIPAVPQKMIVLVHGGPKARDHYGFSPMNAWLTNRGYSVLQVNFRGSTGFGKRLTNAGNGEWGRKMHFDILDAVEFAVSKGIANRSEVAVMGGSYGGYETLVALTFTPQTFACGVDIVGPSNLISLVQAIPPYWLGFRKDLIKMVGADISDEEGRQSLQSRSPLFFADRVTKPIMIIQGANDPRVKQAESDQFVAALEKKHIPVTYLLYPDEGHGVRKPQNSMEQHGHIETFLQQCLGGETQPFQPGQYNSSAIIKKIGIEGAAIARQNLQIAQNQFAQQLPRGPVAPSIFYRPPVRAQRVMLAPNQNVMNRIFPVQG | soluble
